Laboratory results taken from patent publication US20120149104A1.

What was measured:
[1] = molecular target: SNAP-25 peptide comprising amino acids 134-197 of SEQ ID NO: 5 (human); assay: SPR (BIAcore 3000), peptide on CM5 chip, antibody in flow
[2] = molecular target: SNAP-25 peptide comprising amino acids 134-206 of SEQ ID NO: 5 (human); assay: as above

Kd [1]	koff [1]	kon [1]	Kd [2]	koff [2]	kon [2]	Substance
0.000508 µM	0.00118 s⁻¹	2.32e+06 M⁻¹ s⁻¹	0.24 µM	2.56e-05 s⁻¹		MC-6053 mouse α-SNAP-25 monoclonal antibody (Research & Diagnostic Antibodies)
0.000497 µM	0.000882 s⁻¹	1.78e+06 M⁻¹ s⁻¹	19.8 µM	0.00607 s⁻¹	306 M⁻¹ s⁻¹	MC-6050 mouse α-SNAP-25 monoclonal antibody (Research & Diagnostic Antibodies)
